Reference: patent US20160326219A1, “OPTICALLY ACTIVATED RECEPTORS” (IST AUSTRIA (INSTITUTE OF SCIENCE AND TECHNOLOGY AUSTRIA), priority 2013, published 2016)
Like-named read-outs stand apart in the source and are kept apart here.

What was measured:
MAPK pathway = assay: Stimulation and detection of MAPK signaling, PathDetect Elk1 luciferase reporter (HEK293 cells); format: cell-based, human; conditions: for MAPK pathway activation in response to blue light: HEK293 cells expressing the fusion protein (LOV domain fused to RTK intracellular domain), ~3 μW/mm^2; for MAPK pathway activation in response to red light: HEK293 cells, PCB incubation, ~0.05 μW/mm^2
Procedure: For light stimulation of cells, an incubator (PT2499, ExoTerra/HAGEN, Holm, Germany) was equipped with 300 light emitting diodes (JS-FS505ORGB-W30 with JS-CON-004 controller, Komerci, Ebern, Germany; λmax˜630 nm (red), λmax˜530 nm (green), λmax˜470 nm (blue), bandwidth ˜±5 nm). Light intensity was controlled with an analog dimmer and measured with a digital power meter (PM120VA, Thorlabs, Munich, Germany). Intensities at maximal output were 2.3 (red), 2.6 (green) and 3.3 (blue light) W/m^2. For stimulation over extended time periods (>8 h), an aluminium box was equipped with the same light-emitting diodes and controller and placed in an incubator with standard tissue culture conditions (see below).
HEK293 cells and CHO-K1 (American Type Culture Collection (ATCC), Manassas, Va.) cells were maintained in DMEM supplemented with 10% FBS, 100 U/ml penicilin and 0.1 mg/ml streptomycin in a humidified incubator with 5% CO2 atmosphere. After trypsination, 5×10^4 cells were seeded in each well of 96-well plates (three to four wells for each construct) coated with poly-L-ornithine (Sigma, Vienna, Austria). Either transparent plates or black clear bottom plates were used. Cells were transfected using Lipofectamine 2000 (Invitrogen/LifeTech).
Phycocyanobilin (PCB; Livchem Logistics GmbH, Frankfurt a.M., Germany) was dissolved in a dark room to a stock concentration of 10 mM in DMSO. Aliquots were stored in the dark at −20° C. Prior to experiments, cells were incubated with 50 μM PCB overnight in reduced serum starve medium at 37° C. PCB could also be applied to applied to living animals as it is non-toxic even in high doses (0.17% of diet or 10 mg/kg) (McCarty (2007).
Activation of the MAPK pathway was assayed with the PathDetect Elk1 trans-Reporting System (Agilent) consisting of an Elk1 phosphorylation-dependent trans-activator and a luciferase-based trans-reporter. Cells were transfected with 213.3 ng total DNA per well (receptor, trans-activator and trans-reporter at ratio of 1:3:60 or 1:30:600) using Lipofectamine 2000. Six h after transfection medium was replaced with CO2-independent reduced serum starve medium (Gibco/Life Technologies; supplemented with 0.5% FBS, 2 mM L-Glutamine, 100 U/ml penicilin and 0.1 mg/ml streptomycin) for 18 h at 37° C. Cells were transferred and were either kept under constant illumination for 8 h or were protected from light. Chemical stimulation of imFGFR1 followed the same procedure, except that 10 nM AP20187 ((Clackson 1998); ARIAD Pharmaceuticals, Cambridge, Mass.) were added before transfer to the stimulation incubator. After incubation, plates were washed once with PBS and luciferase was detected with standard, off-the-shelf reagents. These were either Luciferase 1000 Assay System (Promega, Mannheim, Germany) in combination with a microplate reader equipped with an injector (Tecan Infinite 200 Pro, Maennedorf, Switzerland), or ONE-Glo Assay System (Promega) in combination with a microplate reader not equipped with an injector (BioTek Synergy H1). These assay systems provide equivalent results.

LOV domains = conditions: cited from earlier work

For “imFGFR1: chemically-inducible mFGFR1 lacking ligand-binding modules, with a single FKBP domain, SEQ ID NO: 56 [reference compound]”, the “MAPK pathway activation in response to blue light” value (MAPK pathway) was “no effect”.

For “rtrkB-SyCP1-PHY: chimeric receptor of rat trkB catalytic domain and SyCP1-PHY, SEQ ID NO: 67”, the “MAPK pathway activation in response to red light” value (MAPK pathway) was “activate the canonical MAPK pathway”.

B1: Opto-mFGFR1-R195E: Opto-mFGFR1 with charge inversion mutation R195E that prevents kinase domain dimer formation (protein)
chain: MGSSKSKPKDPSQRLDMKSGTKKSDFHSQMAVHKLAKSIPLRRQVTVSADSSASMNSGVLLVRPSRLSSSGTPMLAGVSEYELPEDPRWELPRDRLVLGKPLGEGCFGQVVLAEAIGLDKDKPNRVTKVAVKMLKSDATEKDLSDLISEMEMMKMIGKHKNIINLLGACTQDGPLYVIVEYASKGNLREYLQAREPPGLEYCYNPSHNPEEQLSSKDLVSCAYQVARGMEYLASKKCIHRDLAARNVLVTEDNVMKIADFGLARDIHHIDYYKKTTNGRLPVKWMAPEALFDRIYTHQSDVWSFGVLLWEIFTLGGSPYPGVPVEELFKLLKEGHRMDKPSNCTNELYMMMRDCWHAVPSQRPTFKQLVEDLDRIVALTSNQEYLDLSIPLDQYSPSFPDTRSSTCSSGEDSVFSHEPLPEEPCLPRHPTQLANSGLKRRVETGPDYSLVKALQMAQQNFVITDASLPDNPIVYASRGFLTLTGYSLDQILGRNCRFLQGPETDPRAVDKIRNAITKGVDTSVCLLNYRQDGTTFWNLFFVAGLRDSKGNIVNYVGVQSKVSEDYAKLLVNEQNIEYKGVRTSNMLRRKTGGSGVDYPYDVPDYALD
With B1 the “MAPK pathway activation in response to blue light” value (MAPK pathway) was “no MAPK pathway activation”.

B2: mFGFR1-SyCP1-PHY: chimeric receptor of mFGFR1 catalytic domain and SyCP1-PHY, SEQ ID NO: 66 (protein)
chain: MGSSKSKPKDPSQRLDMKSGTKKSDFHSQMAVHKLAKSIPLRRQVTVSADSSASMNSGVLLVRPSRLSSSGTPMLAGVSEYELPEDPRWELPRDRLVLGKPLGEGCFGQVVLAEAIGLDKDKPNRVTKVAVKMLKSDATEKDLSDLISEMEMMKMIGKHKNIINLLGACTQDGPLYVIVEYASKGNLREYLQARRPPGLEYCYNPSHNPEEQLSSKDLVSCAYQVARGMEYLASKKCIHRDLAARNVLVTEDNVMKIADFGLARDIHHIDYYKKTTNGRLPVKWMAPEALFDRIYTHQSDVWSFGVLLWEIFTLGGSPYPGVPVEELFKLLKEGHRMDKPSNCTNELYMMMRDCWHAVPSQRPTFKQLVEDLDRIVALTSNQEYLDLSIPLDQYSPSFPDTRSSTCSSGEDSVFSHEPLPEEPCLPRHPTQLANSGLKRRVETGATTVQLSDQSLRQLETLAIHTAHLIQPHGLVVVLQEPDLTISQISANCTGILGRSPEDLLGRTLGEVFDSFQIDPIQSRLTAGQISSLNPSKLWARVMGDDFVIFDGVFHRNSDGLLVCELEPAYTSDNLPFLGFYHMANAALNRLRQQANLRDFYDVIVEEVRRMTGFDRVMLYRFDENNHGDVIAEDKRDDMEPYLGLHYPESDIPQPARRLFIHNPIRVIPDVYGVAVPLTPAVNPSTNRAVDLTESILRSAYHCHLTYLKNMGVGASLTISLIKDGHLWGLIACHHQTPKVIPFELRKACEFFGRVVFSNISAQEDTETFDYRVQLAEHEAVLLDKMTTAADFVEGLTNHPDRLLGLTGSQGAAICFGEKLILVGETPDEKAVQYLLQWLENREVQDVFFTSSLSQIYPDAVNFKSVASGLLAIPIARHNFLLWFRPEVLQTVNWGGDPNHAYEATQEDGKIELHPRQSFDLWKEIVRLQSLPWQSVEIQSALALKKAIVNLILRQAEETGGSGVDYPYDVPDYALD
modifications: redOpto-mFGFR1
For B2, the “MAPK pathway activation in response to red light” value (MAPK pathway) was “activate the canonical MAPK pathway”.

B3: OdPA1-LOV: LOV domain of O. danica aureochrome1-like protein, residue 180 to 312 of C5NSW6, SEQ ID NO: 14 (protein, listed as Ochromonas danica)
chain: PDYSLVKALQTAQQNFVISDPSIPDNPIVYASQGFLTLTGYALSEVLGRNCRFLQGPETDPKAVEKVRKGLERGEDTTVVLLNYRKDGSTFWNQLFIAALRDGEGNVVNYLGVQCKVSEDYAKAFLKNEENEK
In the case of B3, the “MAPK pathway activation in response to blue light” value (MAPK pathway) is reported as “blue light-induced activation of MAPK signaling with amplitudes similar to that of the original Opto-mFGFR1” and the “Blue light intensity at which activation is already achieved” value (MAPK pathway) is reported as 0.25 mW/cm^2.

B4: SyCP1-PHY: PHY domain of Synechocystis PCC6803 CPH1, residue 2 to 514 of Q55168, SEQ ID NO: 64 (protein)
chain: ATTVQLSDQSLRQLETLAIHTAHLIQPHGLVVVLQEPDLTISQISANCTGILGRSPEDLLGRTLGEVFDSFQIDPIQSRLTAGQISSLNPSKLWARVMGDDFVIFDGVFHRNSDGLLVCELEPAYTSDNLPFLGFYHMANAALNRLRQQANLRDFYDVIVEEVRRMTGFDRVMLYRFDENNHGDVIAEDKRDDMEPYLGLHYPESDIPQPARRLFIHNPIRVIPDVYGVAVPLTPAVNPSTNRAVDLTESILRSAYHCHLTYLKNMGVGASLTISLIKDGHLWGLIACHHQTPKVIPFELRKACEFFGRVVFSNISAQEDTETFDYRVQLAEHEAVLLDKMTTAADFVEGLTNHPDRLLGLTGSQGAAICFGEKLILVGETPDEKAVQYLLQWLENREVQDVFFTSSLSQIYPDAVNFKSVASGLLAIPIARHNFLLWFRPEVLQTVNWGGDPNHAYEATQEDGKIELHPRQSFDLWKEIVRLQSLPWQSVEIQSALALKKAIVNLILRQAEE
modifications: Synechocystis PCC6803
With B4 the “Red light intensity at which activation is already achieved” value (MAPK pathway; red light) was 5.8 μW/cm^2 and the “Red light intensity at which activation is already achieved, converted” value (MAPK pathway; red light, conversion of 5.8 μW/cm^2) was 0.0058 mW/cm^2.

B5: NgPA1-LOV: LOV domain of N. gaditana hypothetical protein NGA_0015702, residue 87 to 228 of K8Z861, SEQ ID NO: 12 (protein, listed as Nannochloropsis gaditana)
chain: PDYTLVKALQTAQQNFVITDPTLPDNPIVYASGGFLSLTGYQMDQILGRNCRFLQGPDTDPAAVDKIRRAIEDGTDGSVCLLNYRADGSTFWNQFFIAALRGADGNIVNYVGVQCKVSEEYASEVLKKEATSSTVAEASSKR
In the case of B5, the “MAPK pathway activation in response to blue light” value (MAPK pathway) is reported as “blue light-induced activation of MAPK signaling with amplitudes similar to that of the original Opto-mFGFR1” and the “Blue light intensity at which activation is already achieved” value (MAPK pathway) is reported as 0.25 mW/cm^2.

B6: Opto-hRET: fusion of human RET catalytic domain and VfAU1-LOV, SEQ ID NO: 60 (protein)
chain: MGSSKSKPKDPSQRLDVTGHCYHKFAHKPPISSAEMTFRRPAQAFPVSYSSSSARRPSLDSMENQVSVDAFKILEDPKWEFPRKNLVLGKTLGEGEFGKVVKATAFHLKGRAGYTTVAVKMLKENASPSELRDLLSEFNVLKQVNHPHVIKLYGACSQDGPLLLIVEYAKYGSLRGFLRESRKVGPGYLGSGGSRNSSSLDHPDERALTMGDLISFAWQISQGMQYLAEMKLVHRDLAARNILVAEGRKMKISDFGLSRDVYEEDSYVKRSQGRIPVKWMAIESLFDHIYTTQSDVWSFGVLLWEIVTLGGNPYPGIPPERLFNLLKTGHRMERPDNCSEEMYRLMLQCWKQEPDKRPVFADISKDLEKMMVKRRDYLDLAASTPSDSLIYDDGLSEEETPLVDCNNAPLPRALPSTWIENKLYGRISHAFTRFTGGPDYSLVKALQMAQQNFVITDASLPDNPIVYASRGFLTLTGYSLDQILGRNCRFLQGPETDPRAVDKIRNAITKGVDTSVCLLNYRQDGTTFWNLFFVAGLRDSKGNIVNYVGVQSKVSEDYAKLLVNEQNIEYKGVRTSNMLRRKPGGSGVDYPYDVPDYALD
modifications: hRET-VfAU1-LOV
In the case of B6, the “MAPK pathway activation in response to blue light” value (MAPK pathway) is reported as “robust activation”.

B7: NcVV-LOV: LOV domain of N. crassa vivid, residue 37 to 186 with Y50W mutation of Q9C3Y6, SEQ ID NO: 8 (protein, listed as Neurospora crassa)
chain: HTLYAPGGYDIMGWLIQIMNRPNPQVELGPVDTSCALILCDLKQKDTPIVYASEAFLYMTGYSNAEVLGRNCRFLQSPDGMVKPKSTRKYVDSNTINTMRKAIDRNAEVQVEVVNFKKNGQRFVNFLTMIPVRDETGEYRYSMGFQCETE
In the case of B7, the Kd (LOV domains; dark state, read-out: Estimated KD, Dark) is listed as under 5000 nM and the Kd (LOV domains; light state, read-out: Estimated KD, Light) is listed as under 500 nM.
